# Source: article PMC8288866, “MKRN3 regulates the epigenetic switch of mammalian puberty via ubiquitination of MBD3” (National Science Review, 2020)
# T1: MBD3 (Homo sapiens) (UniProt O95983)
# T1 sequence: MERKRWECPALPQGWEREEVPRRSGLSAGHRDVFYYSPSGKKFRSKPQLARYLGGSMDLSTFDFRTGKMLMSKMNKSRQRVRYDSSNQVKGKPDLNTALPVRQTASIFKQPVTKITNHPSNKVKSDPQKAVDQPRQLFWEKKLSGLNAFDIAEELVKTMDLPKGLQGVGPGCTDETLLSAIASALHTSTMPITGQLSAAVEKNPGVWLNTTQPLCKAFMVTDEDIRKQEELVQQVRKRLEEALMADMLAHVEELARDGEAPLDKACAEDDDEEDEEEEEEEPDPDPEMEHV
# T2: recombinant MKRN3 protein (GST-tagged) (human, UniProt Q13064 1-507)
# T2 construct: MKRN3 (Makorin ring finger protein 3), human, E3 ubiquitin ligase; also called Makorin ring finger protein 3; source: recombinant
# T2 sequence (looked up): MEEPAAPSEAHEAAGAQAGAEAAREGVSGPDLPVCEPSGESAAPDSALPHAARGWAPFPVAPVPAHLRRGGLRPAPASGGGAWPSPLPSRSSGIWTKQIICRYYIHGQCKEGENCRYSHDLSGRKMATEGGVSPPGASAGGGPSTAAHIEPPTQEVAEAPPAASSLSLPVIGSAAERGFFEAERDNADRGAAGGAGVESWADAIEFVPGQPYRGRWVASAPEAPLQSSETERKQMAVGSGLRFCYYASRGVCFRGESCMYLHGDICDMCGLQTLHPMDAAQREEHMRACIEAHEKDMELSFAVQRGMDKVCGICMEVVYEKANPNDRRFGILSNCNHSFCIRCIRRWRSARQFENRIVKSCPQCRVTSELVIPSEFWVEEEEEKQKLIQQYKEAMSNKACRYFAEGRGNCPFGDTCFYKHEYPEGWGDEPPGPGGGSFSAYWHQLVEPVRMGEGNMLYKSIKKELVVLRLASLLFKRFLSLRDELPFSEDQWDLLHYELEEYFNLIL
# B1: His6-tagged MBD3 (natural protein, human, UniProt O95983 1-291, looked up)
# chain: T1 sequence
# notes: MBD3, human; also called recombinant MBD3; recombinant human MBD3 protein; source: recombinant
# Key:
# MBD3 (Homo sapiens) [1] = target: T1, MBD3 (Homo sapiens); test: competition; conditions: EMSA with 32P-labeled PCR probes, binding buffer, salt, pH and temperature not in the material
# MBD3 (Homo sapiens) [2] = target: T1, MBD3 (Homo sapiens); test: EMSA; conditions: EMSA with 32P-labeled PCR probes, binding buffer, salt, pH and temperature not in the material
# [3] = target: T2, recombinant MKRN3 protein (GST-tagged); test: pull-down; GST pull-down of MKRN3 protein with His6-tagged MBD3, in vitro; conditions: both partners purified
molecule,measurement,setting,value
TTCTTCAGCTTTGGGACTCAGACTGGCTTTCCTTGCTCCTCAGCTTGCGGACGGCCTACTGTGGGACCTTGGGATCGTGTGAGTTAATACTTAATAAACTCTCCTATGTGCGTGTGTTTGTGTGTGTGTGTGTGTGTGTATGTATTCTGTCCCTCTAGAGAATGCTGAGTAATACA (double strand) [GNRH1 promoter 5hmC competitor],binding,MBD3 (Homo sapiens) [1]; 5-hydroxymethylcytosine,binds
TTCTTCAGCTTTGGGACTCAGACTGGCTTTCCTTGCTCCTCAGCTTGCGGACGGCCTACTGTGGGACCTTGGGATCGTGTGAGTTAATACTTAATAAACTCTCCTATGTGCGTGTGTTTGTGTGTGTGTGTGTGTGTGTATGTATTCTGTCCCTCTAGAGAATGCTGAGTAATACA (double strand) [GNRH1 promoter 5hmC probe],binding,MBD3 (Homo sapiens) [2]; all cytosines 5-hydroxymethylcytosine (PCR with 5hm-dCTP; primer-derived cytosines presumably unmodified),binds
TTCTTCAGCTTTGGGACTCAGACTGGCTTTCCTTGCTCCTCAGCTTGCGGACGGCCTACTGTGGGACCTTGGGATCGTGTGAGTTAATACTTAATAAACTCTCCTATGTGCGTGTGTTTGTGTGTGTGTGTGTGTGTGTATGTATTCTGTCCCTCTAGAGAATGCTGAGTAATACA (double strand) [GNRH1 promoter 5mC probe],binding,MBD3 (Homo sapiens) [2]; 5-methylcytosine (PCR with 5m-dCTP; primer-derived cytosines presumably unmodified),no binding
TTCTTCAGCTTTGGGACTCAGACTGGCTTTCCTTGCTCCTCAGCTTGCGGACGGCCTACTGTGGGACCTTGGGATCGTGTGAGTTAATACTTAATAAACTCTCCTATGTGCGTGTGTTTGTGTGTGTGTGTGTGTGTGTATGTATTCTGTCCCTCTAGAGAATGCTGAGTAATACA (double strand) [GNRH1 promoter unmodified C probe],binding,MBD3 (Homo sapiens) [2],binds more weakly
TTCTTCAGCTTTGGGACTCAGACTGGCTTTCCTTGCTCCTCAGCTTGCGGACGGCCTACTGTGGGACCTTGGGATCGTGTGAGTTAATACTTAATAAACTCTCCTATGTGCGTGTGTTTGTGTGTGTGTGTGTGTGTGTATGTATTCTGTCCCTCTAGAGAATGCTGAGTAATACA (double strand) [GNRH1 promoter unmodified competitor],binding,MBD3 (Homo sapiens) [1],binds more weakly
B1,binding result,[3],binds
